Results as given in US20260250318A1, “COMPOSITIONS AND METHODS FOR CROSSING THE BLOOD BRAIN BARRIER” (VOYAGER THERAPEUTICS, INC., priority 2022, published 2026).

T1: human ALPL expressed on cells (alkaline phosphatase tissue-nonspecific isozyme, NM_000478.4) (human, UniProt P05186 18-501)
T1 sequence: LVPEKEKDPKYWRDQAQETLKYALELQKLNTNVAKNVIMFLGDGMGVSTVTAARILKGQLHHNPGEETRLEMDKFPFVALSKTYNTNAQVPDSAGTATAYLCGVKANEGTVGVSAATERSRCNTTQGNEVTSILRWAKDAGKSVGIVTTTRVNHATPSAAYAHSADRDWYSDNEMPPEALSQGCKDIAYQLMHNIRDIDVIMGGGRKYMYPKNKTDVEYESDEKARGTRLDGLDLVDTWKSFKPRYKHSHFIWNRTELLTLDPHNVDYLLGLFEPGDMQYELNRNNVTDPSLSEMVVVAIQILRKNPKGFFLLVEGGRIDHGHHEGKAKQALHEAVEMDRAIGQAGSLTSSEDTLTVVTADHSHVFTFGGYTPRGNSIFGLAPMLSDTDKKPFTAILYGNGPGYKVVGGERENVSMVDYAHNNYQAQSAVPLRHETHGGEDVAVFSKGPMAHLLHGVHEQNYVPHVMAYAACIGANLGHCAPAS

T2: ALPL with a deletion of the ER localization signal (ALPL transcript variant 2, NM_001127501) (human, UniProt P05186 56-501)
T2 sequence: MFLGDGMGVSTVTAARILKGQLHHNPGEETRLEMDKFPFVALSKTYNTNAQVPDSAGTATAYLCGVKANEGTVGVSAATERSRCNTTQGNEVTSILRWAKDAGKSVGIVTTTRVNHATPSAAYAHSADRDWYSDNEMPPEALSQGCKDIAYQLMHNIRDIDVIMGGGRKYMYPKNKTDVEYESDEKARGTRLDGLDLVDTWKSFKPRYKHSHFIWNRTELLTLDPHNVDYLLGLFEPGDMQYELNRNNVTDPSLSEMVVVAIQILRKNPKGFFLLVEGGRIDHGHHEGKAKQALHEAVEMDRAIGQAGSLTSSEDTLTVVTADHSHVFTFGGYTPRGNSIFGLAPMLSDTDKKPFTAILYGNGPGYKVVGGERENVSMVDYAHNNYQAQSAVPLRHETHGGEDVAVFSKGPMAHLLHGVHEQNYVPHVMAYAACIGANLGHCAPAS

T3: murine ALPL ortholog expressed on HEK 293T cells (NM_001287172.1) (mouse, UniProt P09242 18-501)
T3 sequence: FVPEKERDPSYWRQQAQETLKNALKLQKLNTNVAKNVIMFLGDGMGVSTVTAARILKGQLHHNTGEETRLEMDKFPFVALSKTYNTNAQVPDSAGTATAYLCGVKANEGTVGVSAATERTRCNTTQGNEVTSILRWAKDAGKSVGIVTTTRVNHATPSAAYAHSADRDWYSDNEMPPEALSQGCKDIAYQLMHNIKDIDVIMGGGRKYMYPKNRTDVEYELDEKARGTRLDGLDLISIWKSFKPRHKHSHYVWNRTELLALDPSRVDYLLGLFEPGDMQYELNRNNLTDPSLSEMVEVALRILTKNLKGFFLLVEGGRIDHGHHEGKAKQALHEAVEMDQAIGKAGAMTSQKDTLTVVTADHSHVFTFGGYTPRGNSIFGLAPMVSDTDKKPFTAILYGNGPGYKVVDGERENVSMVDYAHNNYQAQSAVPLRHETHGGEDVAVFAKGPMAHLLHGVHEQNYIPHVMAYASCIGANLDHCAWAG

T4: cynomolgus ALPL ortholog expressed on HEK 293T cells (XM_005544525) (Macaca fascicularis)
T4 chain: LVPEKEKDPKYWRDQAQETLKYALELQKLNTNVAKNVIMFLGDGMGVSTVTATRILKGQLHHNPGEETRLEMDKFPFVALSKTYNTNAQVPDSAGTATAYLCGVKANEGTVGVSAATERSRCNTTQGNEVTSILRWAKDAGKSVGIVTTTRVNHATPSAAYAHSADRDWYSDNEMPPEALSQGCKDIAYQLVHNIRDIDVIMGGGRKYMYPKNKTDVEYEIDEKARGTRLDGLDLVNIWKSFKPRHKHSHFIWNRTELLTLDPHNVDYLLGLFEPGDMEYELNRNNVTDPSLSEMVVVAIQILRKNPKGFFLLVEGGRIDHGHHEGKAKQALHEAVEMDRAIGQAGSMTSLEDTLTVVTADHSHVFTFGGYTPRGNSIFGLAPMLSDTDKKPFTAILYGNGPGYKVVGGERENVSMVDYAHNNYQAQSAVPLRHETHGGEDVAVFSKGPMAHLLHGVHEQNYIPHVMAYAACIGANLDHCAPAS

T5: library of over 5,500 cDNAs overexpressed in human cells (ALPL) (Homo sapiens, UniProt P05186)
T5 construct: expressed in transfected cells
T5 sequence (P05186 18-501): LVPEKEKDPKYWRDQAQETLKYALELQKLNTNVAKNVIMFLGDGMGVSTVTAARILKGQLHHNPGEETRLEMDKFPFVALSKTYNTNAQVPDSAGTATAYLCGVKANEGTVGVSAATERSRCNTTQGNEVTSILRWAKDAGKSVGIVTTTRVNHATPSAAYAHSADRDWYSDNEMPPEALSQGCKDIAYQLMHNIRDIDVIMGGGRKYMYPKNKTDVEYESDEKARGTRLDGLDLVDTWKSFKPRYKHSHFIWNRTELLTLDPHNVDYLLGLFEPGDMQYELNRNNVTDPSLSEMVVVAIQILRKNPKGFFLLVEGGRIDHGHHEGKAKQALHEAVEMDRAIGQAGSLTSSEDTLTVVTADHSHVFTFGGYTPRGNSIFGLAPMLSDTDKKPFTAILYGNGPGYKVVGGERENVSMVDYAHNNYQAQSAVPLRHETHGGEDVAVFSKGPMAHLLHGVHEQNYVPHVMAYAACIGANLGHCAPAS


How the values were obtained:
[1] = target: T1, human ALPL expressed on cells (alkaline …); assay: cell-based or functional assay
[2] = target: T2, ALPL with a deletion of the ER …; assay: cell-based or functional assay
[3] = target: T1, human ALPL expressed on cells (alkaline …); assay: cell-based or functional assay; remark: listed apart in the source
[4] = target: T3, murine ALPL ortholog expressed on HEK …; assay: cell-based or functional assay
[5] = target: T1, human ALPL expressed on cells (alkaline …); assay: cell-based or functional assay; remark: listed apart in the source
[6] = target: T3, murine ALPL ortholog expressed on HEK …; assay: cell-based or functional assay; remark: listed apart in the source
[7] = target: T4, cynomolgus ALPL ortholog expressed on …; assay: cell-based or functional assay
[8] = target: T5, library of over 5,500 cDNAs overexpressed in human cells (ALPL); assay: Cell binding array assay for receptor identification; conditions: detected with anti-AAV9 antibody
Text: A cell binding array assay was then used to identify a receptor for the TTM-001 and TTM-002 capsid variants. Briefly, a library of over 5,500 cDNAs was overexpressed in human cells. Cells were contacted with a test ligand, e.g., AAV viral particles comprising a TTM-001 capsid variant or an AAV9 control capsid, which was applied to the array. Binding of the TTM-001 capsid variant or the AAV9 control capsid to the cells was detected using an anti-AAV9 antibody followed by a labeled anti-IgG detection antibody. […] This interacting protein was identified as the GPI-anchored protein, alkaline phosphatase issue-nonspecific isozyme (NM_000478.4, which is incorporated by reference herein) (ALPL). ALPL is part of a family of membrane-bound glycoproteins that hydrolyze monophosphate esters at a high pH (see, e.g., Weiss et al., Isolation and characterization of a cDNA encoding a human liver/bone/kidney-type alkaline phosphatase. Proc. Natl. Acad. Sci., 83:7182-7186 (1986), the contents of which are hereby incorporated by reference in their entirety).

Molecule	luciferase activity, fold change relative to pCMV6 transfected HEK 293T cells (ALPL transfected cells) [1]	fold change in luciferase activity relative to the pCMV6 control cells (cells transfected with ALPL comprising a deletion of the ER localization signal) [2]	fold change in luciferase activity relative to the pCMV6 control cells (cells transfected with human ALPL protein) [3]	fold change in luciferase activity relative to the pCMV6 control cells (cells transfected with murine ALPL protein) [4]	fold change in luciferase activity relative to the pCMV6 control cells (Human ALPL) [5]	fold change in luciferase activity relative to the pCMV6 control cells (Murine ALPL) [6]	fold change in luciferase activity relative to the pCMV6 control cells (Cynomolgus ALPL) [7]	interaction with ALPL in cell binding array [8]
TTM-002 capsid variant (AAV particle comprising the TTM-002 AAV9 capsid variant) (other) chain 1: MAADGYLPDWLEDNLSEGIREWWALKPGAPQPKANQQHQDNARGLVLPGYKYLGPGNGLDKGEPVNAADAAALEHDKAYDQQLKAGDNPYLKYNHADAEFQERLKEDTSFGGNLGRAVFQAKKRLLEPLGLVEEAAKTAPGKKRPVEQSPQEPDSSAGIGKSGAQPAKKRLNFGQTGDTESVPDPQPIGEPPAAPSGVGSLTMASGGGAPVADNNEGADGVGSSSGNWHCDSQWLGDRVITTSTRTWALPTYNNHLYKQISNSTSGGSSNDNAYFGYSTPWGYFDFNRFHCHFSPRDWQRLINNNWGFRPKRLNFKLFNIQVKEVTDNNGVKTIANNLTSTVQVFTDSDYQLPYVLGSAHEGCLPPFPADVFMIPQYGYLTLNDGSQAVGRSSFYCLEYFPSQMLRTGNNFQFSYEFENVPFHSSYAHSQSLDRLMNPLIDQYLYYLSKTINGHDSPHKSGQNQQTLKFSVAGPSNMAVQGRNYIPGPSYRQQRVSTTVTQNNNSEFAWPGASSWALNGRNSLMNPGPAMASHKEGEDRFFPLSGSLIFGKQGTGRDNVDADKVMITNEEEIKTTNPVATESYGQVATNHQSAQAQAQTGWVQNQGILPGMVWQDRDVYLQGPIWAKIPHTDGNFHPSPLMGGFGMKHPPPQILIKNTPVPADPPTAFNKDKLNSFITQYSTGQVSVEIEWELQKENSKRWNPEIQYTSNYYKSNNVEFAVNTEGVYSEPRPIGTRYLTRNL chain 2: TAPGKKRPVEQSPQEPDSSAGIGKSGAQPAKKRLNFGQTGDTESVPDPQPIGEPPAAPSGVGSLTMASGGGAPVADNNEGADGVGSSSGNWHCDSQWLGDRVITTSTRTWALPTYNNHLYKQISNSTSGGSSNDNAYFGYSTPWGYFDFNRFHCHFSPRDWQRLINNNWGFRPKRLNFKLFNIQVKEVTDNNGVKTIANNLTSTVQVFTDSDYQLPYVLGSAHEGCLPPFPADVFMIPQYGYLTLNDGSQAVGRSSFYCLEYFPSQMLRTGNNFQFSYEFENVPFHSSYAHSQSLDRLMNPLIDQYLYYLSKTINGHDSPHKSGQNQQTLKFSVAGPSNMAVQGRNYIPGPSYRQQRVSTTVTQNNNSEFAWPGASSWALNGRNSLMNPGPAMASHKEGEDRFFPLSGSLIFGKQGTGRDNVDADKVMITNEEEIKTTNPVATESYGQVATNHQSAQAQAQTGWVQNQGILPGMVWQDRDVYLQGPIWAKIPHTDGNFHPSPLMGGFGMKHPPPQILIKNTPVPADPPTAFNKDKLNSFITQYSTGQVSVEIEWELQKENSKRWNPEIQYTSNYYKSNNVEFAVNTEGVYSEPRPIGTRYLTRNL chain 3: MASGGGAPVADNNEGADGVGSSSGNWHCDSQWLGDRVITTSTRTWALPTYNNHLYKQISNSTSGGSSNDNAYFGYSTPWGYFDFNRFHCHFSPRDWQRLINNNWGFRPKRLNFKLFNIQVKEVTDNNGVKTIANNLTSTVQVFTDSDYQLPYVLGSAHEGCLPPFPADVFMIPQYGYLTLNDGSQAVGRSSFYCLEYFPSQMLRTGNNFQFSYEFENVPFHSSYAHSQSLDRLMNPLIDQYLYYLSKTINGHDSPHKSGQNQQTLKFSVAGPSNMAVQGRNYIPGPSYRQQRVSTTVTQNNNSEFAWPGASSWALNGRNSLMNPGPAMASHKEGEDRFFPLSGSLIFGKQGTGRDNVDADKVMITNEEEIKTTNPVATESYGQVATNHQSAQAQAQTGWVQNQGILPGMVWQDRDVYLQGPIWAKIPHTDGNFHPSPLMGGFGMKHPPPQILIKNTPVPADPPTAFNKDKLNSFITQYSTGQVSVEIEWELQKENSKRWNPEIQYTSNYYKSNNVEFAVNTEGVYSEPRPIGTRYLTRNL	166 fold	2 fold	24 fold	24 fold	60.3 fold	57.2 fold	81.5 fold	
TTM-001: AAV9 capsid variant comprising SPHSKA (SEQ ID NO: 941) in loop IV (protein) chain 1: MAADGYLPDWLEDNLSEGIREWWALKPGAPQPKANQQHQDNARGLVLPGYKYLGPGNGLDKGEPVNAADAAALEHDKAYDQQLKAGDNPYLKYNHADAEFQERLKEDTSFGGNLGRAVFQAKKRLLEPLGLVEEAAKTAPGKKRPVEQSPQEPDSSAGIGKSGAQPAKKRLNFGQTGDTESVPDPQPIGEPPAAPSGVGSLTMASGGGAPVADNNEGADGVGSSSGNWHCDSQWLGDRVITTSTRTWALPTYNNHLYKQISNSTSGGSSNDNAYFGYSTPWGYFDFNRFHCHFSPRDWQRLINNNWGFRPKRLNFKLFNIQVKEVTDNNGVKTIANNLTSTVQVFTDSDYQLPYVLGSAHEGCLPPFPADVFMIPQYGYLTLNDGSQAVGRSSFYCLEYFPSQMLRTGNNFQFSYEFENVPFHSSYAHSQSLDRLMNPLIDQYLYYLSKTINGSGSPHSKAQNQQTLKFSVAGPSNMAVQGRNYIPGPSYRQQRVSTTVTQNNNSEFAWPGASSWALNGRNSLMNPGPAMASHKEGEDRFFPLSGSLIFGKQGTGRDNVDADKVMITNEEEIKTTNPVATESYGQVATNHQSAQAQAQTGWVQNQGILPGMVWQDRDVYLQGPIWAKIPHTDGNFHPSPLMGGFGMKHPPPQILIKNTPVPADPPTAFNKDKLNSFITQYSTGQVSVEIEWELQKENSKRWNPEIQYTSNYYKSNNVEFAVNTEGVYSEPRPIGTRYLTRNL chain 2: GSGSPHSKAQNQQT								a unique interaction with the TTM-001 capsid variant
